# Measurements as given in the supplement of paper PMC10567573.
# ± gives the standard deviation.
# Assay: protein stability index of a GFP-peptide fusion (GPS, HEK-293T) (PSI 1-6); higher = more stable
# [1] = treatment: DMSO, c terminus: a fixed tail appended
# [2] = treatment: MLN4924 1 uM, 8 h, c terminus: a fixed tail appended
# [3] = treatment: DMSO, c terminus: native
# [4] = treatment: MLN4924 1 uM, 8 h, c terminus: native
# 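Note: 24-mer peptide tiles fused after GFP, lentivirally expressed, FACS-sorted into six equal bins by GFP/DsRed ratio, decoded by Illumina sequencing, PSI is the read-weighted mean bin number.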
Sequence,protein stability index [1],protein stability index [2],protein stability index [3],protein stability index [4]
KVLIQKNLGPKSKVLILRNHGLVS [ADD1],2.08 ± 0.36,2.16 ± 0.33,–,–
KVNLCGHWYYSKACCRSCRPPHS [ADAMTSL2],–,–,2.86 ± 0.57,3.17 ± 0.54
KVTLRIRNVRFSDEGGFTCFFRDH [MOG],2.29 ± 0.5,2.21 ± 0.14,–,–
KWLDMLNNWDKWMAKKHKKIRLRC [TBC1D10A],2.62 ± 0.72,2.27 ± 0.31,–,–
KYLTYDQLRKQKKKTGKSSTTALG [ELOA2],3.35 ± 0.083,3.79 ± 0.34,–,–
LAEGVSASLHTLLGDPCPMLESPG [HDAC6],4 ± 0.28,4.17 ± 0.29,–,–
LAESGGSPDVLQMLKIHRSDPQLI [TRADD],3.16 ± 0.43,3.36 ± 0.24,–,–
LAEWEANPLICPVCTKYNLRITSG [RPAIN],3.35 ± 0.36,3.31 ± 0.36,–,–
LAGPNDRSDVEKGGKIIMPPSALD [UFD1],4.77 ± 0.11,4.97 ± 0.2,–,–
LALFPLLPKVLQKYWCVTATRVAP [ZBED1],2.98 ± 0.3,2.94 ± 0.94,–,–
LAPNFRWAIPNRQINDGMGGDGDD [BEX3],4.77 ± 0.22,4.6 ± 0.26,–,–
LARKIASRNEFDRTIAETEAAYLK [SSNA1],3.57 ± 0.23,3.74 ± 0.3,–,–
LASRNTLFNLSNFLDKSGSHGYDM [SNAP91],2.2 ± 0.26,2.61 ± 0.16,–,–
LAVRGSRRERELERRELAVEQGER [ZBED3],5.05 ± 0.2,5.07 ± 0.18,–,–
LCLQLRDDIVSGRLPCSFVTLALL [EPB41L3],3.24 ± 0.61,2.23 ± 0.45,–,–
LCSSPLEAETPPNGPDCGYGSFHQ [ATE1],4.28 ± 0.18,4.24 ± 0.079,–,–
LCYPPAKGCLKLCRRCYDWIHRPG [SPRY1],2.06 ± 0.094,2.27 ± 0.33,–,–
LDHDIFQLIDPDENKENEAFEFKK [CDC25A],4.07 ± 0.083,4.13 ± 0.52,–,–
LDKNKIPYKGFIPEDLEAFIELH [FEM1A],–,–,3.1 ± 0.29,3.06 ± 0.27
LDLAGNNIPGDVLRAVEQAMGHSQ [LRRC45],4.45 ± 0.39,4.44 ± 0.28,–,–
LDQLLHYRKKSAEFPDFYDSEEPV [CHGB],3.96 ± 0.34,4 ± 0.15,–,–
LDSSEGSSQEDEDLGLSEGSSQDS [SPANXN3],5.66 ± 0.19,5.64 ± 0.23,–,–
LEEGSSFWNQGLTWKVLFCSMSAT [CLCN6],3.06 ± 0.55,2.63 ± 0.67,–,–

Sequence,protein stability index [1],protein stability index [2],protein stability index [3],protein stability index [4]
LELGSTEVLLDHLKAHAEEKPPSG [PLAGL1],4.46 ± 0.28,4.94 ± 0.2,–,–
LEPLGAPQAPAPATATDTFEAAPP [CEBPB],5.38 ± 0.42,5.39 ± 0.44,–,–
LERKFRCQQEQLFQTRQEMTSMSA [LRRC45],3.22 ± 0.29,3.21 ± 0.24,–,–
LFGTIAYLPPERIREKSRLFDTKH [RIPK4],2.57 ± 0.52,2.57 ± 0.27,–,–
LFLSHVLALGLGIYIGKRLSTPSA [BNIP3L],2.86 ± 0.86,2.94 ± 0.55,–,–
LFYFFLYQYCSIHCSDRKQVRNIA [CSTF3],2.92 ± 0.83,2.61 ± 0.33,–,–
LGGFRHKVTGVEYHNAGTQTVPKR [IQUB],4.03 ± 0.36,4.1 ± 0.3,–,–
LGMVTPVNDLRGSDSIAYDKGEKL [ADD1],4.62 ± 0.3,4.9 ± 0.089,–,–
LGYCLLLMLAGMGLHYIAFRKVKQ [DNAJC4],3.18 ± 0.28,3.11 ± 0.38,–,–
LHLLYLLEKVECTPSQEHLKHQTV [FEM1A],2.29 ± 0.43,2.23 ± 0.26,–,–
LICEGLYPASIVDEPTFKVLLKTA [ZBED1],2.25 ± 0.28,2.31 ± 0.24,–,–
LIGGLEAQLSELRCEMEAQNQEYK [KRT15],4.1 ± 0.15,4.52 ± 0.44,–,–
LIHKADEVTLSEAGSTAGAAETRG [PALM],5.31 ± 0.2,5.18 ± 0.15,–,–
LIPGDAYTDYVATRWYRAPELLVG [CDKL4],2.18 ± 0.22,2.18 ± 0.071,–,–
LIQRKKVHVFGDELSLVTLFRCIQ [TNFSF13B],2.25 ± 0.67,2.04 ± 0.34,–,–
LIYDFIEDQGGLEAVRQEMRRQEP [WAS],2.55 ± 0.28,2.75 ± 0.42,–,–
LKASMRELGLLIFFLFIGVILFSS [KCNA1],2.33 ± 0.45,2.31 ± 0.48,–,–
LKECLKKQLEFCFSRENLSKDLYL [LARP4],–,2.67 ± 0.89,–,–
LKKGESECQYYIDKLEYLDEKQRD [NET1],4.55 ± 0.15,4.5 ± 0.32,–,–
LKLLDELPIAKVMKDYLKHKFDDI [ASB7],2.04 ± 0.3,2.14 ± 0.28,–,–
LKLVAHPRAKSKVWKYFGFDTNAE [ZBED1],2.23 ± 0.39,2.25 ± 0.26,–,–
LKPRPEPPKKPSNWRRKHEEFIAT [ZC2HC1A],3.47 ± 0.22,3.56 ± 0.17,–,–
